We go through seven molecules from US20250250357A1 (NANJING ZAIMING PHARMACEUTICAL, published 2025).

Test [1] deals with T1, human MSLN-R3-his protein (human, UniProt Q13421 487-598).
T1 construct: Made in HEK293E cells, purified on nickel column; also called hMSLN-R3-his; human MSLN-R3 protein; not shown: His tag
In words: ELISA, coated antigen, antibody 0.01 nM.

Test [2] addresses T2, human MSLN-R3-3 polypeptide (human).
T2 construct: Part of region R3 of human MSLN; also called hMSLN-R3-3; human MSLN-R3-3 protein
In words: ELISA, coated antigen, antibody 0.0001 nM.
Protocol: (§1) The plate was sealed with a plastic film and incubated at 4° C. overnight. The next day, the plate was washed twice with PBST, and a blocking buffer [PBS+2% (w/w) BSA] was added for blocking at room temperature for 2 h. The blocking buffer was discarded, and a chimeric antibody or negative control antibody serially diluted from 100 nM was added at 50 μL/well. After incubation at 37° C. for 2 h, the plate was washed 3 times with PBST. […] After incubation at 37° C. for 2 h, the plate was washed 5 times with PBST. A TMB substrate was added at 50 μL/well for incubation at room temperature for 5-10 min, and then a stop solution (1.0 N HCl) was added at 50 μL/well.

For test [3], the target named is T1, human MSLN-R3-his protein. The test can be described thus: ELISA, coated antigen, antibody 1 nM.
Protocol: as §1
Test [4] addresses T2, human MSLN-R3-3 polypeptide. The test can be described thus: ELISA, coated antigen, antibody 0.001 nM.
Protocol: as §1
Test [5] shares this target. The test can be described thus: ELISA, coated antigen, no antibody (blank).
For test [6], the target named is T1, human MSLN-R3-his protein. The test can be described thus: ELISA, coated antigen, antibody 0.1 nM.
Protocol: as §1
The target in test [7] is T1, human MSLN-R3-his protein. The test can be described thus: ELISA, coated antigen, no antibody (blank).
Protocol: as §1
Test [8] concerns the target T2, human MSLN-R3-3 polypeptide. The test can be described thus: ELISA, coated antigen, antibody 0.1 nM.
Protocol: as §1
Test [9] has the same target. The test can be described thus: ELISA, coated antigen, antibody 0.01 nM.
Protocol: as §1
Test [10] has the same target. The test can be described thus: ELISA, coated antigen, antibody 100 nM.
Protocol: as §1
Test [11] addresses T1, human MSLN-R3-his protein. In words: ELISA, coated antigen, antibody 100 nM.
Protocol: as §1
The target of test [12] is T1, human MSLN-R3-his protein. The test can be described thus: ELISA, coated antigen, antibody 10 nM.
Protocol: as §1
Test [13] deals with T1, human MSLN-R3-his protein. In words: ELISA, coated antigen, antibody 0.001 nM.
Protocol: as §1
For test [14], the target named is T2, human MSLN-R3-3 polypeptide. In words: ELISA, coated antigen, antibody 10 nM.
Protocol: as §1
The target is the same in test [15]. In words: ELISA, coated antigen, antibody 1 nM.
Protocol: as §1
The target in test [16] is T1, human MSLN-R3-his protein. The test can be described thus: ELISA, coated antigen, antibody 0.0001 nM.
The target in test [17] is T3, human MSLN-FL-his protein (human, UniProt Q13421 296-580).
T3 construct: also called human MSLN full-length protein; hMSLN-FL-his; not shown: His tag
In words: ELISA, coated antigen; no antibody (blank, column 'none').

Test [18] deals with T3, human MSLN-FL-his protein. The test can be described thus: ELISA, coated antigen; antibody 0.01 nM.
Protocol: as §1
Test [19] concerns the target T3, human MSLN-FL-his protein. In words: ELISA, coated antigen; antibody 0.1 nM.
Protocol: as §1
The target of test [20] is T3, human MSLN-FL-his protein. In words: ELISA, coated antigen; antibody 10 nM.
Protocol: as §1
Test [21] has as its target T3, human MSLN-FL-his protein. In words: ELISA, coated antigen; antibody 1 nM.
Protocol: as §1
Test [22] concerns the target T3, human MSLN-FL-his protein. The test can be described thus: ELISA, coated antigen; antibody 0.001 nM.
Protocol: as §1
The target of test [23] is T3, human MSLN-FL-his protein. In words: ELISA, coated antigen; antibody 0.0001 nM.
Protocol: as §1
The target in test [24] is T3, human MSLN-FL-his protein. The test can be described thus: ELISA, coated antigen; antibody 100 nM.
Protocol: as §1
The target of test [25] is T4, human MSLN-R2-his protein (human, UniProt Q13421 391-486).
T4 construct: also called human MSLN-R2 protein; hMSLN-R2-his; not shown: His tag
The test can be described thus: ELISA, coated antigen; antibody 10 nM.

In test [26] the target is T4, human MSLN-R2-his protein. In words: ELISA, coated antigen; antibody 1 nM.
Protocol: as §1
In test [27] the target is T4, human MSLN-R2-his protein. The test can be described thus: ELISA, coated antigen; antibody 0.1 nM.
Protocol: as §1
Test [28] addresses T4, human MSLN-R2-his protein. The test can be described thus: ELISA, coated antigen; antibody 0.001 nM.
Protocol: as §1
Test [29] deals with T4, human MSLN-R2-his protein. The test can be described thus: ELISA, coated antigen; no antibody (blank, column 'none').
Protocol: as §1
In test [30] the target is T4, human MSLN-R2-his protein. In words: ELISA, coated antigen; antibody 100 nM.
Protocol: as §1
Test [31] concerns the target T4, human MSLN-R2-his protein. In words: ELISA, coated antigen; antibody 0.0001 nM.
Protocol: as §1
Test [32] deals with T4, human MSLN-R2-his protein. The test can be described thus: ELISA, coated antigen; antibody 0.01 nM.
Protocol: as §1

T3 sequence (Q13421 other isoform, or with tags, fused parts or gaps): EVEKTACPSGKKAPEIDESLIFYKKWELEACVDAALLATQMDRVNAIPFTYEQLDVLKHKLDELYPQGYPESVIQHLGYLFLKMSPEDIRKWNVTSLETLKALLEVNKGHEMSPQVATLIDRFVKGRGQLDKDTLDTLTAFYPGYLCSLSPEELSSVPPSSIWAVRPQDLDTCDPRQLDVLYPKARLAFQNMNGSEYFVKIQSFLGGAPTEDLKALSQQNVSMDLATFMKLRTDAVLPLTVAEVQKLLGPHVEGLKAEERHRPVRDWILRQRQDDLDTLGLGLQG
T1 sequence (Q13421 495-606): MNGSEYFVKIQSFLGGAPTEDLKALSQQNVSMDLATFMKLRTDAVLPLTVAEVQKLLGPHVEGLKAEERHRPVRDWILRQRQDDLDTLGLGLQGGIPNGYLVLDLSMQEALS
T4 sequence (Q13421 other isoform, or with tags, fused parts or gaps): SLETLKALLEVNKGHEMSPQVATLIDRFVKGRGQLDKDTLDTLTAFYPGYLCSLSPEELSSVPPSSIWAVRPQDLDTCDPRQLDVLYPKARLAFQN

B1: S009-F5-9.16 chimeric antibody (antibody, human IgG1, kappa, V domains shown)
VH: EVQLRQSGPVLVKPGASVKMSCKASGYTFTDYFMNWVKPSHGKSLEWIGVINPSNGVINYNQRFKGKATLTVDKSSSTAYMELNSLTSEDSAVYYCARSYDFAWFAYWGQGTLVTVSA
VL: DVLMTQTPLSLPVSLGDQASISCRSSQNIVHSNGNTYLEWYLQKPGQSPKLLIYTVSNRFSGVPDRFSGSGSGTDFTLKISRVEAEDLGVYYCFQGSHVPYTFGGGTKLEIKR
notes: Human-murine chimeric antibody, human IgG1/kappa constant regions
In the case of B1, the OD450 was 1.11 in [1]; 0.05 in test [2]; 2.32 in [3]; 0.04 in test [4]; 0.05 in [5]; 1.82 in [6]. Further, the OD450 in test [7] was 0.05; in [8] it was 0.05; in [9], 0.04; in test [10], 1.99; in [11], 2.28; in test [12] it was 2.36. The OD450 was determined as 0.26 in test [13], 0.67 in [14], 0.13 in [15] and 0.12 in test [16].

B2: S009-F6-62.5 (antibody, human IgG1, kappa, V domains shown)
VH: QVQLQQPGTELVKPGASVKLSCRASGYTFTAYWMHWVKQRPGQGLEWIGNINPSNGGTDFNEKFKSKATLTVDKSSSTAYMQLSSLTSEDSAVYYCARGRGYFDVWGTGTTVTVSS
VL: DILLTQSPAILSVSPGERVSFSCRASKNIGTSIHWYQQRTNGSPRLLIKYASESISGIPSRFSGSGSGTDFTLNINSVESEDIADYYCQQSNSWPTLTFGAGTKLELKR
notes: as for B1
For the molecule B2, the OD450 in test [17] turned out to be 0.05 OD450; in [18], 0.94 OD450; in test [19], 2.45 OD450; in [20] it was 3.11 OD450; in test [21], 3.13 OD450; in [22], 0.27 OD450. Further, the OD450 in test [23] was found to be 0.05 OD450; in test [24] it was 3.22 OD450.

B3: S009-F6-62.5 chimeric antibody (antibody, human IgG1, kappa, V domains shown)
VH: B2 VH
VL: B2 VL
notes: as for B1
With B3, the OD450 is 0.04 in test [2]; 0.04 in test [4]; 0.05 in test [5]; 0.04 in test [8]; 0.04 in test [9]; 0.09 in [10]. Moreover, the OD450 in [14] and in test [15] was 0.05 each time.

B4: Tab106 (YP218, hIgG1) (antibody, V domains shown)
VH: QQQLEESGGGLVKPEGSLTLTCKASGFDLGFYFYACWVRQAPGKGLEWIACIYTAGSGSTYYASWAKGRFTISKASSTTVTLQMTSLAAADTATYFCARSTANTRSTYYLNLWGPGTLVTVSS
VL: DVVMTQTPASVSEPVGGTVTIKCQASQRISSYLSWYQQKPGQRPKLLIFGASTLASGVPSRFKGSGSGTEYTLTISDLECADAATYYCQSYAYFDSNNWHAFGGGTEVVVRT
notes: Control antibody: YP218 VH and VL recombined into human IgG1 CH and CL expression vectors; also called YP218 human IgG1 antibody
Consider B4, for which the OD450 in [25] was determined as 1.39 OD450; in test [26], 0.3 OD450; in [27], 0.08 OD450; in test [28] it was 0.06 OD450; in [29] it was 0.07 OD450; in [30], 2.07 OD450. For the same molecule, the OD450 in [31] and in [32] was 0.06 OD450 each time.

B5: Tab106 (YP218, hIgG1) (antibody, V domains shown)
VH: B4 VH
VL: B4 VL
notes: Control: YP218 VH and VL recombined into human IgG1 CH and CL expression vectors; also called YP218 human IgG1 antibody
For B5, the OD450 in test [1] worked out at 0.18; in [3], 1.57; in [6] it was 0.88; in test [7], 0.07; in test [11], 1.79; in test [12], 1.69. In addition, the results for the OD450 in [13] and in test [16] were 0.06 and 0.05, respectively.

B6: S009-F4-127.10 chimeric antibody (antibody, human IgG1, kappa, V domains shown)
VH: EVQLQQSGPVLVKPGASVKMSCKASGYTFTDYYMNWVKQSHGKSPEWIGVINPYNDVISYNQKFKGKATLTVDKSSSTAYMELNSLTSEDSAVYYCANYGSSYYAMDYWGQGTSVTVSS
VL: DVVMTQTPLSLSVSLGDQASISCRSSQSLVHSNGNTYLQWSLQKPGQSPNLLIYKVSNRFSGVPDRFSGSGSGTDFTLKISRVEAEDLGVYFCSQTTHVPFTFGGGTKLEIRR
notes: as for B1
Take B6: the OD450 in [1] worked out at 0.41; in [2], 0.06; in test [3], 1.82; in test [4], 0.05; in test [5] it was 0.07; in [6], 1.31. Besides, the OD450 was 0.07 in test [7]; 0.05 in [8]; 0.05 in test [9]; 0.14 in test [10]; 2.1 in test [11]; 1.93 in [12]. Moreover, the OD450 in [13] was determined as 0.09; in [14], 0.06; in [15], 0.05; in [16], 0.06.

B7: S009-F4-94.15 chimeric antibody (antibody, human IgG1, kappa, V domains shown)
VH: QVQLHQPGAELVRPGSSVKLSCKASGYTFTSYWVHWVQQRPRQGLEWIGNIDPSDSEIHYNQKFKDKATLTVDKSSSTAYIHLSRLTSEDSAIYYCVRGGVPWFAYWGQGTLVTVSA
VL: QIVLTQSPAIMSASPGEKVTLTCSASSSVSSTYLYWFQQKPGSSPKVWIYSTSNLASGVPARFSGSGSGTSYSLTISSMEAEDAASYFCHQWISYPYTFGGGTKLEIKR
notes: Human-murine chimeric antibody: murine VH/VL on human IgG1 heavy and kappa light constant regions
In the case of B7, the OD450 came out at 0.07 in test [1]; 0.06 in test [2]; 0.11 in test [3]; 0.05 in test [4]; 0.07 in test [5]; 0.17 in [6]. Also, the OD450 in [7] came out at 0.07; in test [8], 0.05; in test [9], 0.05; in [10], 0.09; in test [11], 0.1; in [12], 0.07. In addition, the OD450 is 0.05 in [13], 0.06 in test [14], 0.05 in test [15] and 0.05 in test [16].
